Reference: patent US20170114140A1
Where “and” joins values, the source holds several entries; their conditions need not be identical. Equal entries are not always repeated.

Tests used:
Assay in all cases: cell-based or functional assay
[1] = target: IL-25 (R&D Systems) used to restimulate human PBMC (UniProt Q9H293)
[2] = target: human IL-17RB on human PBMC (human) (UniProt Q9NRM6)
[3] = target: human IL-17RA on cells (human PBMC; human foreskin fibroblasts) (human) (UniProt Q96F46)

Sequence of human IL-17RB on human PBMC (human) (Q9NRM6 18-502): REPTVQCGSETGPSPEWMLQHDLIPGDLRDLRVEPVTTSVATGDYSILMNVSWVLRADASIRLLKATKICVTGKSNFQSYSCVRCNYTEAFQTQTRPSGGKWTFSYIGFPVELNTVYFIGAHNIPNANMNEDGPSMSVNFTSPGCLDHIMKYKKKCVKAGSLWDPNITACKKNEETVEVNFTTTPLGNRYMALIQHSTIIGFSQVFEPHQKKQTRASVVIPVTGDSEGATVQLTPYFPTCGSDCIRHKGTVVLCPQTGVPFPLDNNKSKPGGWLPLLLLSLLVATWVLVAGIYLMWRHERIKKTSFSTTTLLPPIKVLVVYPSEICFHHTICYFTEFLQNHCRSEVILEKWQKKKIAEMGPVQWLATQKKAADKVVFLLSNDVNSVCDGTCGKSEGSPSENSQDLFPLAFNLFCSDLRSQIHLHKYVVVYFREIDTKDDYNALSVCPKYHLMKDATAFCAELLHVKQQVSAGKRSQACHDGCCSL
Sequence of IL-25 (R&D Systems) used to restimulate human PBMC (Q9H293 33-177 limits assumed): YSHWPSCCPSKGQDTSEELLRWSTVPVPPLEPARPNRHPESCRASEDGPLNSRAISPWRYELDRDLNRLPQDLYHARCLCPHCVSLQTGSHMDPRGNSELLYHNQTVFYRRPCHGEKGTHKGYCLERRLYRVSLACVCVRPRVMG

Substance “HuIL-17RB: HIS (extracellular region of human IL-17RB fused to poly HIS) (from UniProt Q9NRM6 18-292) (receptor)” has a % Inhibition of IL-5 production (TSLP treated human PBMC + IL-2 + IL-25), inhibitor 10 micrograms/mL [1] of 67%.

In the case of “MAB1207: anti-HuIL-17RB MuIgG2b (R&D Systems) (antibody)”, the % Inhibition of IL-5 production (TSLP treated human PBMC + IL-2 + IL-25), inhibitor 10 micrograms/mL [2] is reported as 13%.

In the case of “MAB1771: anti-HuIL-17RA MuIgG2b (R&D Systems) (antibody)”, the % Inhibition of IL-5 production (TSLP treated human PBMC + IL-2 + IL-25), inhibitor 10 micrograms/mL [3] is reported as 24% and 33%.
